Data reported in patent US20090104231A1.

How the values were obtained:
[1] = biological target: NS3 CD8 peptide … presented by MHC of C57B1 mice (Hepatitis C virus)
[2] = biological target: NS3 CD4 peptide … presented by MHC of C57B1 mice (Hepatitis C virus)
[3] = biological target: NS3 CD8 peptide … presented by MHC of C57B1 mice (Hepatitis C virus); remark: listed apart in the source
[4] = biological target: NS3 CD4 peptide … presented by MHC of C57B1 mice (Hepatitis C virus); remark: listed apart in the source
[5] = biological target: NS3 CD8 peptide … presented by MHC of C57B1 mice (Hepatitis C virus); remark: listed apart in the source
[6] = biological target: purified HCV NS3 protein (genotype 1b) from Mikrogen (Hepatitis C virus genotype 1b)
[7] = biological target: NS3 CD4 peptide … presented by MHC of C57B1 mice (Hepatitis C virus); remark: listed apart in the source
[8] = biological target: purified HCV NS5B protein (genotype 1b) from Mikrogen (Hepatitis C virus genotype 1b)
[9] = biological target: NS5B CD8 peptide … presented by MHC of C57BL/6 mice (Hepatitis C virus)
[10] = biological target: NS5B CD4 peptide … presented by MHC of C57BL/6 mice (Hepatitis C virus)
[11] = biological target: NS4B CD4 peptide … presented by MHC of Balb/c mice (Hepatitis C virus)
[12] = biological target: NS4B CD8 peptide … presented by MHC of Balb/c mice (Hepatitis C virus)
[13] = biological target: purified HCV NS4 protein (genotype 1b) from Mikrogen (Hepatitis C virus genotype 1b)

Row | Substance | intracellular cytokine staining of IFNγ and IL2 (fold over the Core 191 group) [1] | intracellular cytokine staining of IFNγ and IL2 (fold over the Core 191 group) [2] | intracellular cytokine staining (fold over the Core 191 group) [3] | intracellular cytokine staining (fold over the Core 191 group) [4] | IFNγ-producing T cells, intracellular cytokine staining (% of CD8+ cells (unit from paragraph 162)) [5] | IFNγ-producing T cells, intracellular cytokine staining (frequency (unit not given)) [6] | IFNγ-producing T cells, intracellular cytokine staining (frequency (unit not given)) [7] | IFNγ-producing T cells, intracellular cytokine staining (frequency (unit not given)) [8] | IFNγ-producing T cells, intracellular cytokine staining (frequency (unit not given)) [9] | IFNγ-producing T cells, intracellular cytokine staining (frequency (unit not given)) [10] | IFNγ-producing T cells, intracellular cytokine staining (frequency (unit not given)) [11] | IFNγ-producing T cells, intracellular cytokine staining (frequency (unit not given)) [12] | IFNγ-producing T cells, intracellular cytokine staining (frequency (unit not given)) [13] | IFNγ-producing T cells, intracellular cytokine staining (frequency (unit not given)) [5]
1 | T cells of C57BL mice immunised with gold beads co-coated with p7313ieNS3, p7313ieNS5B and p7313ieCore151 (cells without a defined receptor) | 2 | 2 |  |  |  |  |  |  |  |  |  |  |  | 
2 | T cells of C57BL mice immunised with gold beads co-coated with p7313ieNS3/NS4B/NS5B triple fusion together with core 151 (cells without a defined receptor) |  |  | 2 | 2 |  |  |  |  |  |  |  |  |  | 
3 | splenocytes of C57BL mice immunised with DNA encoding NS3 alone (cells without a defined receptor) |  |  |  |  | 4.4 | 0.29 | 0.24 |  |  |  |  |  |  | 
4 | splenocytes of C57BL mice immunised with DNA encoding polyprotein HCV 500 (Core-NS3-NS4B-NS5B) (cells without a defined receptor) |  |  |  |  | 5.54 | 0.27 | 0.38 | 0.14 | 0.35 | 0.43 | 0.1 | 0.6 | 0.09 | 
5 | splenocytes of C57BL mice immunised with DNA encoding polyprotein HCV 501 (Core (66-191)-(1-65)-NS3-NS4B-NS5B) (cells without a defined receptor) |  |  |  |  |  | 0.05 | 0.08 | 0.03 | 0.09 | 0.13 | 0.06 | 0.13 | 0.09 | 0.16
6 | splenocytes of C57BL mice immunised with DNA encoding polyprotein HCV 510 (NS3-NS4B-NS5B-Core) (cells without a defined receptor) |  |  |  |  | 3.95 | 0.17 | 0.29 | 0.1 | 0.11 | 0.29 | 0.09 | 0.34 | 0.09 | 
7 | splenocytes of C57BL mice immunised with DNA encoding polyprotein HCV 520 (NS4B-NS5B-Core-NS3) (cells without a defined receptor) |  |  |  |  | 3.32 | 0.14 | 0.28 | 0.09 | 0.08 | 0.18 | 0.05 | 0.33 | 0.08 | 
8 | splenocytes of C57BL mice immunised with DNA encoding polyprotein HCV 530 (NS5B-Core-NS3-NS4B) (cells without a defined receptor) |  |  |  |  | 4.89 | 0.15 | 0.21 | 0.06 | 0.12 | 0.7 | 0.1 | 0.37 | 0.17 | 
9 | splenocytes of mice immunised with DNA encoding NS4B as single antigen (cells without a defined receptor) |  |  |  |  |  |  |  |  |  |  | 0.18 | 2.04 | 0.17 | 
10 | splenocytes of mice immunised with DNA encoding NS5B as single antigen (cells without a defined receptor) |  |  |  |  |  |  |  | 0.1 | 1.67 | 0.26 |  |  |  | 
